Article PMC5752578 (Structure (London, England : 1993), 2017)

T1: Grp1 63-399 E161A part of the Grp1 63-399 E161A Arf6 Q67L fusion (mouse, UniProt O08967 63-399, E161A)
T1 sequence (looked up): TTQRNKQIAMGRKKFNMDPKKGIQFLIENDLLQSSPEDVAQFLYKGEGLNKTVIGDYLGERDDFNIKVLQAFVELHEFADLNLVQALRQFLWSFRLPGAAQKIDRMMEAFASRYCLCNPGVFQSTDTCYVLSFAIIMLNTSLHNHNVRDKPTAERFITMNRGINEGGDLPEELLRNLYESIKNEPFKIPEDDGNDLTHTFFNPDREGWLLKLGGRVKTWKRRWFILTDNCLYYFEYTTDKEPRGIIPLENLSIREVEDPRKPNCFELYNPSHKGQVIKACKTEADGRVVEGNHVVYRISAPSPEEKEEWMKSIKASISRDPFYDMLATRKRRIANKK

B1: Grp1_(63-390) (mouse Grp1, diglycine splice variant, residues 63-390; fully active, lacking the polybasic region) (domain or fragment, UniProt O08967 63-390, looked up)
chain: TTQRNKQIAMGRKKFNMDPKKGIQFLIENDLLQSSPEDVAQFLYKGEGLNKTVIGDYLGERDDFNIKVLQAFVELHEFADLNLVQALRQFLWSFRLPGEAQKIDRMMEAFASRYCLCNPGVFQSTDTCYVLSFAIIMLNTSLHNHNVRDKPTAERFITMNRGINEGGDLPEELLRNLYESIKNEPFKIPEDDGNDLTHTFFNPDREGWLLKLGGRVKTWKRRWFILTDNCLYYFEYTTDKEPRGIIPLENLSIREVEDPRKPNCFELYNPSHKGQVIKACKTEADGRVVEGNHVVYRISAPSPEEKEEWMKSIKASISRDPFYDMLAT
B2: Arf6 Q67L part of the Grp1-Arf6 fusion constructs, loaded with GppNHp (natural protein, human)
chain: GKVLSKIFGNKEMRILMLGLDAAGKTTILYKLKLGQSVTTIPTVGFNVETVTYKNVKFNVWDVGGLDKIRPLWRHYYTGTQGLIFVVDCADRDRIDEARQELHRIINDREMRDAIILIFANKQDLPDAMKPHEIQEKLGLTRIRDRNWYVQPSCATSGDGLYEGLTWLTSNYK

How the values were obtained:
SEC-SAXS = target: the molecule itself; assay: SEC-SAXS
[1] = target: T1, Grp1 63-399 E161A part of the Grp1 …; assay: SEC-SAXS

Binder	stoichiometry N (SEC-SAXS)	binding result [1]
B1	2	–
B2	–	binds
